US8022177B2, “Peptides and calcium regulation in mammalian cells” (The Board of Trustees of the University of Illinois, priority 2005, dated 2011)

How the values were obtained:
Format in all cases: cell-based
Cav3.1 [1] = target: T1, Cav3.1 (Homo sapiens, UniProt O43497); assay: Whole-cell patch clamp of Cav3.1 LVA current in HEK/Cav3.1 cells transfected with γ6/γ4 chimeric and truncated constructs (Example 2); conditions: Table 1 (Example 2)
T1 construct: expressed in transfected cells; host or cells: HEK-293, stably transfected
T1 sequence (O43497 whole entry, the tested form may be a part): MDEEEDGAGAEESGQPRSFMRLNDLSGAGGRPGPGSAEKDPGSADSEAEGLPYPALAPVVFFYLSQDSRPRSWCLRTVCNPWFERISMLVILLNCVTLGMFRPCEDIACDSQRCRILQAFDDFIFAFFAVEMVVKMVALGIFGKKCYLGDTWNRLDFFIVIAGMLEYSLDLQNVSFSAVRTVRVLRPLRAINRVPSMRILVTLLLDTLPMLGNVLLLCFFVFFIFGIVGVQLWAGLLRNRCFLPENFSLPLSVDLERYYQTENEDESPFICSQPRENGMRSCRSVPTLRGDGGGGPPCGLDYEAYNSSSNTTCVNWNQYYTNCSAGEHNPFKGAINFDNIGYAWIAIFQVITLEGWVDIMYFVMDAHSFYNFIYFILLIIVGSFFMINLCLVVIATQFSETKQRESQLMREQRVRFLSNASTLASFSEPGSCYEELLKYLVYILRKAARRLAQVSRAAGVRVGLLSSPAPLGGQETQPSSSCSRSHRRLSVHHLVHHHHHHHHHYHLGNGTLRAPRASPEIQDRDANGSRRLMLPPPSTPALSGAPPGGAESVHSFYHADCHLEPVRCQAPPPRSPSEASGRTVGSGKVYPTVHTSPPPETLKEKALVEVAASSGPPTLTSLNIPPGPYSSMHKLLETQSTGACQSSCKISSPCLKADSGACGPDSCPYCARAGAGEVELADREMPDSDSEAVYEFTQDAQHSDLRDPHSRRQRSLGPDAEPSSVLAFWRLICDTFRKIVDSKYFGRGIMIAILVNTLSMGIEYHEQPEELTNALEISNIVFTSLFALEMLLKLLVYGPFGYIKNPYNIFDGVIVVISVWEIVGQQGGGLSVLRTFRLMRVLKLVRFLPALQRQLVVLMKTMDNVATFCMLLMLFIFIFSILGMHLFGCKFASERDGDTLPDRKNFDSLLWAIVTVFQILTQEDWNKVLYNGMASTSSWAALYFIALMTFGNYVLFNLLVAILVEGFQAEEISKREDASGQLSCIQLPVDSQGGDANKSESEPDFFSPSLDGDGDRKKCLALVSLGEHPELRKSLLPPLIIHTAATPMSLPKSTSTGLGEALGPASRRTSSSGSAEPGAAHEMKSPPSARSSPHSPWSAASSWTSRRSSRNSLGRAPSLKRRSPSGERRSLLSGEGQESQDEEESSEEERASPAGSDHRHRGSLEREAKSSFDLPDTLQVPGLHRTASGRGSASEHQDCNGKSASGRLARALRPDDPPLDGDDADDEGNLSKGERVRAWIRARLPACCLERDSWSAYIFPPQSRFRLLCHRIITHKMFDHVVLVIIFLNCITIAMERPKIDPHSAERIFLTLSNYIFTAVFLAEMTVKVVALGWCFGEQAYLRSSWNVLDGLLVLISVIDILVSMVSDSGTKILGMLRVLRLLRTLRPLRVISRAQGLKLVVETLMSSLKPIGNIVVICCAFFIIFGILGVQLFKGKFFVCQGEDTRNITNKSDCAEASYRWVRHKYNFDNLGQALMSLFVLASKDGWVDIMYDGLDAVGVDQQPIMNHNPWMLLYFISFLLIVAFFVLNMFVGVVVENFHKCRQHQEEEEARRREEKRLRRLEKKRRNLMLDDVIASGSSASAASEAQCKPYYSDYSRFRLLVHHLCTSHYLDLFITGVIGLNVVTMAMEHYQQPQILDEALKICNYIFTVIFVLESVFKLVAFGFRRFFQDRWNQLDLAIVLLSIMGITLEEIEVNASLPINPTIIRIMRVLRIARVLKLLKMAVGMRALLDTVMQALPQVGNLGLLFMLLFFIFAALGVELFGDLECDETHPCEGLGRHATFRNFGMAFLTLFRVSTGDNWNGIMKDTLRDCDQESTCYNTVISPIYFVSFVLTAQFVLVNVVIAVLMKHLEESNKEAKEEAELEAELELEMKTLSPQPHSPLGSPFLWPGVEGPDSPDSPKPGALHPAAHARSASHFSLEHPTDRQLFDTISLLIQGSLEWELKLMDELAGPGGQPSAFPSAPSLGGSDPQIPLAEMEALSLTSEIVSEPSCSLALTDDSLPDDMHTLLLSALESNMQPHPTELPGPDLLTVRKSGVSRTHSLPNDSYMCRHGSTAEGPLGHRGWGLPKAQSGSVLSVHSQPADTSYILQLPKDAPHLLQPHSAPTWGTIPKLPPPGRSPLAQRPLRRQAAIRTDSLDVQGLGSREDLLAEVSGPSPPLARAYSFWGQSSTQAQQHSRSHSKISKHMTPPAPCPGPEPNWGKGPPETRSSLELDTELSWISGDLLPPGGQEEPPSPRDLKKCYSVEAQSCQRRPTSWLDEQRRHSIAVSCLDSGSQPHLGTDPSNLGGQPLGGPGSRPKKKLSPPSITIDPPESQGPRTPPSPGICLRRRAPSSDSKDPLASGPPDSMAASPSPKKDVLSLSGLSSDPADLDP
Procedure: Transfection—HEK-293 cell lines stably transfected with Cav3.1 were transiently transfected with vectors containing γ subunit cDNAs using Lipofectamine 2000 reagent (Invitrogen) as per the manufacturer's recommendations. HEK-293 cells were grown to 70-80% confluence before transfection.
Electrophysiology—Whole-cell calcium currents were recorded using an Axopatch-1D patch clamp system and Clampex 8.0 software. Pipettes were fabricated from borosilicate glass and had typical resistances of 2-4 MΩ. The pipette solution contained (in mM): 130 NaCl, 10 EGTA, 2 MgCl2, 1 CaCl2, 10 HEPES, 3 Tris-ATP, and 0.3 Tris-GTP, adjusted to pH 7.4 with NaOH and 280 mOsm with sucrose. The bath solution contained (in mM): 137 NaCl, 1 KCl, 1 MgCl2, 0.33 NaH2PO4, 2 CaCl2, 10 HEPES, and 30 μM TTX, adjusted to pH 7.4 with NaOH and 280 mOsm with sucrose.
Recordings from HEK-293 cells were made 48-96 hours post-transfection, at which time expression, as measured by GFP fluorescence, peaked. All HEK-293 data is from current records in which pipette and whole-cell capacitance were about 100% compensated and series resistance was compensated to >80%. Series resistance values were typically <10 MΩ (megaohms), and no records were used in which the voltage error (as defined by Ver=Imax×Ra) was greater than 5 mV. The holding potential of all protocols used for HEK-293 cells was −100 mV except for steady-state inactivation protocols where the holding potential was −120 mV. Current-voltage relationships for all HEK-293 cells were measured using 50 ms test depolarizations. Peak current amplitudes for activation curves were determined by fitting tail currents, elicited by stepping membrane voltage from varying test potentials to −60 mV, with the Boltzman equation. Test potential steps for activation protocols were of varied durations, corresponding to the time to peak of the elicited current. Inactivation curves were determined by fitting peak amplitudes of currents, observed in a test pulse to −20 mV, following 500 ms steps to varying potentials, with the Boltzman equation. Time to peak was determined using the current-voltage protocol described above. Inactivation time constants were determined by fitting the decay phase of currents to an exponential equation and deactivation time constants were determined by fitting the decay phase of tail currents to an exponential equation. […] When a double exponential equation was used to fit Cav3.1 tail currents, the magnitude of the fast component was about 10 fold that of the slow component. Currents were recorded at 40 kHz and on-line filtered at 5. In some cases currents were off-line filtered at 1 kHz to further reduce noise. Current-voltage relationships and tail currents were recorded from HEK cells using an on-line P/−4 subtraction procedure. The average membrane capacitance of untransfected HEK-293 cells in pilot experiments was 12.5+/−0.4 pF (n=8).
Statistical Analysis—All data are reported as mean±SEM and tested for significance by one-way ANOVA. A value of P<0.05 was considered significant and when significant p-values were encountered groups were compared using the Tukey post-hoc test.

Cav3.1 [2] = target: T1, Cav3.1; assay: Whole-cell patch clamp of Cav3.1 dependent LVA calcium current in HEK-293/Cav3.1 cells transiently transfected with γ subunits (Example 1)
Procedure: 2.3. Transfection. Untransfected HEK-293 cells, HEK-293 cell lines stably transfected with Cav3.1, and HL-1 cells were transiently transfected with vectors containing γ subunit, GFP, and modified CFP cDNAs using Lipofectamine 2000 reagent (InVitrogen) as per the manufacturer's recommendations. HEK-293 cells were grown to 70-80% confluence before transfection. HL-1 cells were grown to 50-75% confluence before transfection.
2.4. Electrophysiology. Whole-cell calcium currents were recorded using an Axopatch-1 D patch clamp system and Clampex 8.0 software. Pipettes were fabricated from borosilicate glass and had typical resistances of 2-4 MΩ. The pipette solution contained (in mM): 130 NaCl, 10 EGTA, 2 MgCl2, 1 CaCl2, 10 HEPES, 3 Tris-ATP, and either 0.3 Li2GTP or 0.3 Tris-GTP, adjusted to pH 7.4 with NaOH and 280 mOsm with sucrose. The bath solution contained (in mM): 137 NaCl (for HEK-293 experiments) or 120 TEACl (for HL-1 experiments), 1 KCl, 1 MgCl2, 0.33 NaH2PO4, 2 CaCl2 (for HEK-293 experiments) or 5 CaCl2 (for HL-1 experiments), 10 glucose (for HL-1 experiments only), 10 HEPES, and 30 μM TTX (for HEK-293 experiments only), adjusted to pH 7.4 with NaOH (for HEK-293 experiments) or TEAOH (for HL-1 experiments) and 280 mOsm with sucrose. NaCl was used as the major salt in the pipette solution order to eliminate any outward K+ currents.
Recordings from HEK-293 cells were made 48-96 h posttransfection, at which time expression, as measured by GFP fluorescence, peaked. HL-1 cells were used for recording 24-36 h post-transfection. Current densities in HEK-293/Cav3.1 cell experiments were normalized to control for variation in current expression in the different frozen stocks of stable cell lines used. […] HL-1 experiments were performed using a single stock of cells. All HEK-293 data are from current records in which pipette and whole-cell capacitance were about 100% compensated and series resistance was compensated to >80%. Whole-cell capacitance and series resistance were not compensated for HL-1 recordings as currents were typically <100 pA. Series resistance values were typically <10 MX, and no records were used in which the voltage error (as defined by Ver=Imax×Ra) was greater than 5 mV. The holding potential of all protocols used for HEK-293 cells was −100 mV except for steady-state inactivation protocols where the holding potential was −120 mV. The holding potential for protocols used for HL-1 cells was −90 mV. Current-voltage relationships for all HEK-293 and HL-1 cells were measured using 50 ms test depolarizations. Peak current amplitudes for activation curves were determined by fitting tail currents, elicited by stepping membrane voltage from varying test potentials to −60 mV, with the Boltzman equation. Test potential steps for activation protocols were of varied durations, corresponding to the time to peak of the elicited current. Inactivation curves were determined by fitting peak amplitudes of currents, observed in a test pulse to −20 mV, following 500 ms steps to varying potentials, with the Boltzman equation. Time to peak was determined using the current-voltage protocol described above. Inactivation time constants were determined by fitting the decay phase of currents to an exponential equation and deactivation time constants were determined by fitting the decay phase of tail currents to an exponential equation. […] Currents were recorded at 40 kHz and on-line filtered at either 5 or 10 kHz. In some cases currents were off-line filtered at 1 kHz to further reduce noise. Current/voltage relationships and tail currents were recorded from HEK cells using an on-line P/−4 subtraction procedure. Calcium currents recorded from HL-1 cells were off-line leak subtracted. The average membrane capacitance of untransfected HEK-293 cells in pilot experiments was 12.5±1.4 pF (n=8). […]

Cav3.1 [3] = target: T1, Cav3.1; assay: Whole-cell patch clamp of Cav3.1 current in Cav3.1/HEK cells transfected with chimeras, truncations and point mutants (Example 6); conditions: FIG. 38, FIG. 41
Procedure: Transfection. HEK-293 cells stably transfected with either Cav3.1 or Cav3.2 were transiently transfected, at 50% confluency, with a bicistronic vector encoding both GFP and γ subunit cDNA's using Lipofectamine 2000 reagent (Invitrogen, Carlsbad, Calif.) as per the manufacturer's recommendations. Cells were visualized using an Nikon inverted microscope with an FITC filter.
Electrophysiology. Whole cell Ca^2+ currents were recorded using an Axon Instruments Axopatch-1D amplifier and Clampex 8.0 software. Pipettes were made from boroscillicate glass and had typical resistances of 2-4 Mohms. The pipette solution contained (in mM) 130 NaCl, 10 EGTA, 2 or 5 MgCl2, 1 CaCl2, 10 HEPES, 3 Tris-ATP, and 0.3 Li2GTP. Two different bath solutions were used. The first, used for experiments with γ subunit chimeras, contained (in mM) 130 NaCl, 1 MgCl2, 2 CaCl2, 10 glucose, 10 HEPES, and 0.03 TTX. The second, used for experiments with γ subunit containg point mutations, contained (in mM) 137 NaCl, 1 KCl, 1 MgCl2, 0.33 NaH2PO4, 2 CaCl2, 10 HEPES. All solutions were adjusted to pH 7.4 with NaOH and 280 mOsm with sucrose. No Cl^− currents were evident in any HEK-293 cells line, stably transfected or not, and no attempt was made to eliminate Cl^− currents from data records.
All electrophysiological data are from current records in which voltage offset was adjusted, pipette capacitance and whole cell capacitance were compensated and series resistance was compensated to >80%. Currents were filtered at 10 kHz and recorded at 40 kHz. In some cases, current records were off-line filtered at 1K. Current voltage relationships were recorded using an on-line P/−4 subtraction procedure to eliminate linear capacitative and leakage currents. Only recordings with less than 50 pA leakage current were used.
Several different protocols were used to determine the biophysical characteristics of currents in HEK-293 cells. The voltage dependence of activation was determined using “tail” currents. Cells were depolarized from a holding potential of −100 mV to test potentials ranging from −90 mV to +60 mV. Pulse durations varied and corresponded to the time to peak current measured at the corresponding test potentials. Following the conditioning pulse cells were re-polarized to −60 mV and the amplitude of the resulting “tail” current measured. The voltage dependence of inactivation was measured by depolarizing the cells to voltages ranging from −120 mV to 50 mV for 500 ms to inactivate the Ca^2+ channels. After this conditioning step the membrane was returned to the holding potential (−100 mV) for 3 ms and then depolarized a second time to +20 mV for 150 ms during which time the peak current was measured. Time constants for inactivation were measured by fitting a single exponential equation to the decay phase of currents elicited by voltage steps from −50 to +30 mV from a holding potential of −100 mV. Time constants for deactivation were measured by fitting either a single or a double exponential to the decay phase of tail currents.
To account for the inherent variation in calcium current density in the HEK-Cav3.1 stable cell line the averaged current density of each test group of cells was normalized to the mean current density of a control group of cells. A minimum of 5 cells (typically 7 to 10) from each group was used to calculate the mean current densities of test and control cells. At least two independent transfections were performed for each test condition. […]

| Molecule | Activation V 0.5 (Cav3.1 [1]) | Activation k (Cav3.1 [1]) | Deactivation tau @ −100 mV, Fast (Cav3.1 [1]) | Inactivation V 0.5 (Cav3.1 [1]) | Inactivation k (Cav3.1 [1]) | Inactivation tau @−20 mV (Cav3.1 [1]) | Time to peak @ −20 mV (Cav3.1 [1]) | V peak (Cav3.1 [1]) | Effect on current kinetics or voltage dependency (Cav3.1 [2]; HEK-293/Cav3.1) | Peak current density, % of control value (Cav3.1 [2]; HEK-293/Cav3.1, normalized to adCGI vector control, mean±S.E.M.) | Activation V 0.5 (Cav3.1 [2]; Table 2) | Activation k (Cav3.1 [2]; Table 2) | Deactivation tau @ −100 mV, Fast (Cav3.1 [2]; Table 2) | Inactivation Tau @ −20 mV (Cav3.1 [2]; Table 2) | Inactivation V 0.5 (Cav3.1 [2]; Table 2) | Inactivation k (Cav3.1 [2]; Table 2) | Time to peak @ −20 mV (Cav3.1 [2]; Table 2) | V peak (Cav3.1 [2]; Table 2) | Decrease in Cav3.1 current density (Cav3.1 [2]; co-expression with Cav3.1 in HEK-293 cells) | Effect on Cav3.1 calcium current density (Cav3.1 [3]) |
| --- | --- | --- | --- | --- | --- | --- | --- | --- | --- | --- | --- | --- | --- | --- | --- | --- | --- | --- | --- | --- |
| γ6S: rat calcium channel γ6 subunit, short isoform (AF361344), SEQ ID NO:49 (protein, listed as Rattus norvegicus) MMWSNFFMQEEDRRRTAVGRRRAQEQQNLGLTPEREGKIKLGLLVAIVGATLAVLAVGTEFWVELNTYKTNGSAVCEAAHLGLWKVCIKRLWQADVPAGRETCGPAELPGEANCTYFKFFTTGENAHIFQRTTKKGLLLFVSLEVFRHSVRALLQGVNPETPPAPRLAYEYSWSLGCGVGAGLILLLGGVCFLLLTLPSWPWRSLCPKRGGPTA | −36.3 ± 6.2 (n = 4) mV | 12.7 ± 1.5 (n = 4) | 1.20 ± 0.06 (n = 3) ms | −72.0 ± 5.9 (n = 3) mV | 5.9 ± 0.7 (n = 3) | 22.9 ± 0.7 (n = 2) ms | 6.4 ± 0.5 (n = 3) ms | −27.0 ± 2.5 (n = 5) mV | did not alter current kinetics or voltage dependency | 31%±13% | −36.3 ± 6.2 (n = 4) mV | 12.7 ± 1.5 (n = 4) | 1.20 ± 0.06 (n = 3) ms | 22.9 ± 0.7 (n = 2) ms | −72.0 ± 5.9 (n = 3) mV | 5.9 ± 0.7 (n = 3) | 6.4 ± 0.5 (n = 3) ms | −27.0 ± 2.5 (n = 5) mV | 69% | – |
| γ1 T12G: γ1 single mutant containing just part of the GXXXA motif (protein, UniProt Q06432 1-222, looked up, variant T12G) Voltage-dependent calcium …: MSQTKMLKVRVGLFCILAGIVLAMTAVVTDHWAVLSPHMEHHNTTCEAAHFGLWRICTKRIPMDDSKTCGPITLPGEKNCSYFRHFNPGESSEIFEFTTQKEYSISAAAIAIFSLGFIILGSLCVLLSLGKKRDYLLRPASMFYAFAGLCILVSVEVMRQSVKRMIDSEDTVWIEYYYSWSFACACAAFILLFLGGLALLLFSLPRMPRNPWESCMDAEPEH | – | – | – | – | – | – | – | – | – | – | – | – | – | – | – | – | – | – | – | no effect |
| γ1 (T12G, I16A): γ1 double mutant containing the complete GXXXA motif in TM1 (protein, UniProt Q06432 1-222, looked up, variant T12G I16A) Voltage-dependent calcium …: MSQTKMLKVRVGLFCALAGIVLAMTAVVTDHWAVLSPHMEHHNTTCEAAHFGLWRICTKRIPMDDSKTCGPITLPGEKNCSYFRHFNPGESSEIFEFTTQKEYSISAAAIAIFSLGFIILGSLCVLLSLGKKRDYLLRPASMFYAFAGLCILVSVEVMRQSVKRMIDSEDTVWIEYYYSWSFACACAAFILLFLGGLALLLFSLPRMPRNPWESCMDAEPEH | – | – | – | – | – | – | – | – | – | – | – | – | – | – | – | – | – | – | – | significantly inhibited |
